PMC4869107, “In vitro flow cytometry-based screening platform for cellulase engineering” (Scientific Reports, 2016)

System: T1, Cc1cc(=O)oc2cc(O[C@@H]3O[C@H](CO)[C@@H](O[C@@H]4O[C@H](CO)[C@@H](O)[C@H](O)[C@H]4O)[C@H](O)[C@H]3O)ccc12
T1 construct: 604 residues, ~69 kDa; expressed in E. coli BL21 Gold (DE3)
Experiment: purified protein
Type: biochemical, uncultured bacterium
Conditions: potassium phosphate pH 7.2, 30 °C (general assay; kinetics by cited protocol)

CelA2 (CelA2-WT) (uncultured bacterium)
Km: 48.37 (±2.43) μM | kcat: 0.00183 ± 0.00035 s⁻¹ | kcat/Km: 33.3 M⁻¹ s⁻¹

CelA2 (CelA2-WT) (uncultured bacterium; H288F)
Km: 8.95 (±1.62) μM | kcat: 0.00833 ± 0.000367 s⁻¹ | kcat/Km: 933 M⁻¹ s⁻¹

CelA2 (CelA2-WT) (uncultured bacterium; H288F/N273D/N468S)
Km: 9.66 (±1.19) μM | kcat: 0.0253 ± 0.000767 s⁻¹ | kcat/Km: 2620 M⁻¹ s⁻¹
